From IntAct's records for PubMed 19017275

B1: Phosphothreonine lyase OspF (Shigella flexneri), Q8VSP9 (parent)
chain: MPIKKPCLKLNLDSLNVVRSEIPQMLSANERLKNNFNILYNQIRQYPAYYFKVASNVPTYSDICQSFSVMYQGFQIVNHSGDVFIHACRENPQSKGDFVGDKFHISIAREQVPLAFQILSGLLFSEDSPIDKWKITDMNRVSQQSRVGIGAQFTLYVKSDQECSQYSALLLHKIRQFIMCLESNLLRSKIAPGEYPASDVRPEDWKYVSYRNELRSDRDGSERQEQMLREEPFYRLMIE
partner: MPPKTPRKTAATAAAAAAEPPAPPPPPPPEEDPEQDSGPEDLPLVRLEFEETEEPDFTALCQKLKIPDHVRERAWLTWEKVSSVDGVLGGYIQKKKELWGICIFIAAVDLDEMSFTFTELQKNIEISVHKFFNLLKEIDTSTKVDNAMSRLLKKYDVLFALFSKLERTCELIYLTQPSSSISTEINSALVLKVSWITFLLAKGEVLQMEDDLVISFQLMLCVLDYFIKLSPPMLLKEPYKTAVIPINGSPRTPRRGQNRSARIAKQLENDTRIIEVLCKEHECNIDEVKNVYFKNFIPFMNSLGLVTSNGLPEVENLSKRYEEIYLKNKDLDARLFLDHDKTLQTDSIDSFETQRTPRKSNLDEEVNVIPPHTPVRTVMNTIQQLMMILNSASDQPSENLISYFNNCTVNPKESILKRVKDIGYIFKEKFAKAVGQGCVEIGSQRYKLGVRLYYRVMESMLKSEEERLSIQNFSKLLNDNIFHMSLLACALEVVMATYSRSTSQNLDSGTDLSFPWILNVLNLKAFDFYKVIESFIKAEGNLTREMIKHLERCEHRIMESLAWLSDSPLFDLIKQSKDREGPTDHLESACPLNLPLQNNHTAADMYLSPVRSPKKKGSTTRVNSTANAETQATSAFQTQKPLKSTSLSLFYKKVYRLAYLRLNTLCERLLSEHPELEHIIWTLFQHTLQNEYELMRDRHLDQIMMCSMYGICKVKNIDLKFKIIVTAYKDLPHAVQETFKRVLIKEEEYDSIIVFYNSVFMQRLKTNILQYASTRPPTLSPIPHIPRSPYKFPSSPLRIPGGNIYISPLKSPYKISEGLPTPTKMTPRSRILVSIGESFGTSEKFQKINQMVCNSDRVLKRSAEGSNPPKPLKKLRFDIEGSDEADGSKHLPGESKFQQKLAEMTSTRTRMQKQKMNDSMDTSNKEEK

Variants of: B1
Conditions: with rb_human RB1, P06400

Variant | effect of a mutation on the interaction
I178R;C180G;E182A | decreasing interaction strength
